B1: Hammerhead Ribozyme (parent)
chain: ACCGGAUGUGCUUUCCGGUCUGAUGAGUCCGUGAGGACGAAACAG

This series covers variants of B1. As to the kind of experiment: self-cleavage, relative activity (ratio to wild type); higher = more cleavage; co-transcriptional.
For ACCGGAUGUGCUUUCCGGUCUGAUGCGUCCGUAAGGACGAAACAG, the self-cleavage came to 0.655. Next, ACCGGAUGUGCUUUCCGGUCUGAUGCGUCCGUUAGGACGAAACAG: 0.774; ACCGGAUGUGCUUUCCGGUCUGAUGCGUCCGUCAGGACGAAACAG: 0.559; ACCGGAUGUGCUUUCCGGUCUGAUGGGUCCGUGUGGACGAAACAG: 0.353. To ACCGGAUGUGCUUUCCGGUCUGAUGGGUCCGUGCGGACGAAACAG belongs 0.346; to ACCGGAUGUGCUUUCCGGUCUGAUGGGUCCGUGGGGACGAAACAG, 0.305. With ACCGGAUGUGCUUUCCGGUCUGAUGCGUCCGUGAGGACGAACCAG, the self-cleavage worked out at 0.305. To ACCGGAUGUGCUUUCCGGUCUGAUGCGUCCGUGAGGACGAAGCAG belongs 0.371. Next, ACCGGAUGUGCUUUCCGGUCUGAUGCGUCCGUGAGGACGAAUCAG: 0.393.

As for ACCGGAUGUGCUUUCCGGUCUGAUGCGUCCGUGAGUACGAAACAG, the self-cleavage is 0.355.

As for ACCGGAUGUGCUUUCCGGUCUGAUGCGUCCGUGAGCACGAAACAG, the self-cleavage is 0.277. To ACCGGAUGUGCUUUCCGGUCUGAUGCGUCCGUGAGAACGAAACAG belongs 0.395; to ACCGGAUGUGCUUUCCGGUCUGAUGGGUCCGUGAGGACGAAACAG, 0.379; to ACCGGAUGUGCUUUCCGGUCUGAUGCGUCCAUGAGGACGAAACAG, 0.687. To ACCGGAUGUGCUUUCCGGUCUGAUGCGUCCUUGAGGACGAAACAG belongs 0.727. Next, ACCGGAUGUGCUUUCCGGUCUGAUGCGUCCCUGAGGACGAAACAG: 0.411. For ACCGGAUGUGCUUUCCGGUCUGAUGCGUCCGUGAGGACAAAACAG, the self-cleavage was 0.366.

As to ACCGGAUGUGCUUUCCGGUCUGAUGCGUCCGUGAGGACCAAACAG, the self-cleavage came out at 0.45.

Turning to ACCGGAUGUGCUUUCCGGUCUGAUGCGUCCGUGAGGACUAAACAG, the self-cleavage came out at 0.351. To ACCGGAUGUGCUUUCCGGUCUGAUGCGUCCGUGAGGACGAAACGG belongs 0.803.

As to ACCGGAUGUGCUUUCCGGUCUGAUGCGUCCGUGAGGACGAAACCG, the self-cleavage stood at 0.406. Next, ACCGGAUGUGCUUUCCGGUCUGAUGCGUCCGUGAGGACGAAACUG: 0.344; ACCGGAUGUGCUUUCCGGUCUGAUGCGUCCGUGAGGACGAAACAA: 0.304. As for ACCGGAUGUGCUUUCCGGUCUGAUGCGUCCGUGAGGACGAAACAU, the self-cleavage was determined as 0.45. Next, ACCGGAUGUGCUUUCCGGUCUGAUGCGUCCGUGAGGACGAAACAC: 0.398; ACCGGAUGUGCUUUCCGGUCUGAUGCCUCCGUGAGGACGAAACAG: 0.303; ACCGGAUGUGCUUUCCGGUCUGAUGCUUCCGUGAGGACGAAACAG: 0.397.

For ACCGGAUGUGCUUUCCGGUCUGAUGCAUCCGUGAGGACGAAACAG, the self-cleavage worked out at 0.313. To ACCGGAUGUGCUUUCCGGUCUGAUGCGUCCGUGAAGACGAAACAG belongs 0.431; to ACCGGAUGUGCUUUCCGGUCUGAUGCGUCCGUGACGACGAAACAG, 0.489. To ACCGGAUGUGCUUUCCGGUCUGAUGCGUCCGUGAUGACGAAACAG belongs 0.334. To ACCGGAUGUGCUUUCCGGUCUGAUGGGUCCGUGAGGGCGAAACAG belongs 0.424; to ACCGGAUGUGCUUUCCGGUCUGAUGGGUCCGUGAGGCCGAAACAG, 0.252; to ACCGGAUGUGCUUUCCGGUCUGAUGCGUCCGUGAGGAAGAAACAG, 0.657. As for ACCGGAUGUGCUUUCCGGUCUGAUGCGUCCGUGAGGAUGAAACAG, the self-cleavage worked out at 0.503. Take ACCGGAUGUGCUUUCCGGUCUGAUGCGUCCGUGAGGAGGAAACAG: the self-cleavage came out at 0.33. On to ACCGGAUGUGCUUUCCGGUCUGAUGCGUCCGUGAGGACGAAAGAG, for which the self-cleavage came to 0.31. To ACCGGAUGUGCUUUCCGGUCUGAUGCGUCCGUGAGGACGAAAUAG belongs 0.343; to ACCGGAUGUGCUUUCCGGUCUGAUGCGUCCGUGAGGACGAAAAAG, 0.349; to ACCGGAUGUGCUUUCCGGUCUGAUGCGACCGUGAGGACGAAACAG, 0.572. Next, ACCGGAUGUGCUUUCCGGUCUGAUGCGGCCGUGAGGACGAAACAG: 0.46; ACCGGAUGUGCUUUCCGGUCUGAUGCGCCCGUGAGGACGAAACAG: 0.524. In the case of ACCGGAUGUGCUUUCCGGUCUGAUGCGUCUGUGAGGACGAAACAG, the self-cleavage was 0.753. As to ACCGGAUGUGCUUUCCGGUCUGAUGCGUCGGUGAGGACGAAACAG, the self-cleavage was 0.33.

With ACCGGAUGUGCUUUCCGGUCUGAUGCGUCAGUGAGGACGAAACAG, the self-cleavage was 0.426. For ACCGGAUGUGCUUUCCGGUCUGAUGCGUCCGUGAGGACGAGACAG, the self-cleavage came to 0.307.

In the case of ACCGGAUGUGCUUUCCGGUCUGAUGCGUCCGUGAGGACGAUACAG, the self-cleavage amounted to 0.299. Next, ACCGGAUGUGCUUUCCGGUCUGAUGCGUCCGUGAGGACGACACAG: 0.369. To ACCGGAUGUGCUUUCCGGUCUGAUGCGUUCGUGAGGACGAAACAG belongs 0.448; to ACCGGAUGUGCUUUCCGGUCUGAUGCGUGCGUGAGGACGAAACAG, 0.303.

With ACCGGAUGUGCUUUCCGGUCUGAUGCGUACGUGAGGACGAAACAG, the self-cleavage is 0.241. To ACCGGAUGUGCUUUCCGGUCUGAUGCGUCCGUGAGGACGUAACAG belongs 0.352; to ACCGGAUGUGCUUUCCGGUCUGAUGCGUCCGUGAGGACGCAACAG, 0.274.

In the case of ACCGGAUGUGCUUUCCGGUCUGAUGCGUCCGUGAGGACGGAACAG, the self-cleavage was 0.285. Next, ACCGGAUGUGCUUUCCGGUCUGAUGCGUCCGCGAGGACGAAACAG: 0.803; ACCGGAUGUGCUUUCCGGUCUGAUGCGUCCGAGAGGACGAAACAG: 0.659; ACCGGAUGUGCUUUCCGGUCUGAUGCGUCCGGGAGGACGAAACAG: 0.42.

These data come from the RNAGym collection of RNA variant scans (doi:10.7554/elife.80360).
